Test results as given in paper PMC5735849.

Experiments:
[1] = molecular target: T1, NP (ΔNPNTD) NTD (Zaire ebolavirus), P18272; settings: modification not given
T1 chain: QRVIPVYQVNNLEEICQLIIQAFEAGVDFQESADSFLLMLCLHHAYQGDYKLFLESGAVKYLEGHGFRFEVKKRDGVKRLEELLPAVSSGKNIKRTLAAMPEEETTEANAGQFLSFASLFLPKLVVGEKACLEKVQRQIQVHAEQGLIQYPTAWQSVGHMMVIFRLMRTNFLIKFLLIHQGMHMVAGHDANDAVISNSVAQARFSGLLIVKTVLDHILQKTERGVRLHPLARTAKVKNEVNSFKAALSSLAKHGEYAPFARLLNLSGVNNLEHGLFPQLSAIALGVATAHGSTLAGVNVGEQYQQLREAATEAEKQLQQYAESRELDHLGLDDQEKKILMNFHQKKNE

[2] = molecular target: T1, NP (ΔNPNTD) NTD (Zaire ebolavirus), …; test: competition; settings: modification not given

B1: VP35 NPBP 20-48, Q05127 (peptide)
chain: MPGPELSGWISEQLMTGRIPVSDIFCDIE
Kd [1]: 32 nM
IC50 [2]: 262 nM
